Test results: doi:10.1101/2021.08.05.455261
Read-outs that look alike come from different tables or passages of the source.

How the values were obtained:
Test in all cases: SEC
[1] = biological target: C-terminal domain homolog (CTDH) from Anabaena variabilis (Anabaena variabilis)
[2] = biological target: C-terminal domain homolog (CTDH) from Anabaena variabilis (Anabaena variabilis); remark: listed apart in the source
[3] = biological target: C-terminal domain homolog (CTDH) from Anabaena variabilis (Anabaena variabilis); remark: listed apart in the source
[4] = biological target: C-terminal domain homolog (CTDH) from Anabaena variabilis (Anabaena variabilis); remark: listed apart in the source

Measured: stoichiometry N

C-terminal domain homolog (CTDH) from Anabaena variabilis (natural protein)
2: all assays above
